According to publication PMC9268139, “Conversion of the Native N-Terminal Domain of TDP-43 into a Monomeric Alternative Fold with Lower Aggregation Propensity” (Molecules, 2022):

Experiments:
[1] = biological target: TDP-43 NTD NTD (Homo sapiens) (UniProt Q13148); test: AUC; details: cited from earlier work
[2] = biological target: the molecule itself; test: SEC; 0.5 mg/mL (45 µM) NTD loaded, 0.0% SB3-10, Superdex 200 Increase 10/300 GL, 5 mM sodium phosphate, 50 mM NaCl, 1 mM DTT, pH 7.4, 4 °C; calibration with folded standards

Sequence of TDP-43 NTD NTD (Q13148 1-80): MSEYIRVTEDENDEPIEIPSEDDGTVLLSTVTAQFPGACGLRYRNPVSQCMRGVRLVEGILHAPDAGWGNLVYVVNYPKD

| Molecule | Kd [1] [µM] | stoichiometry N [2] |
| --- | --- | --- |
| TDP-43 NTD NTD (from UniProt Q13148) | 40 |  |
| N-terminal domain (NTD) of TAR DNA-binding protein 43 (TDP-43) (domain or fragment, UniProt Q13148 1-77, looked up, whole protein has 414 residues; also called TDP-43 NTD; native NTD; source: purified as previously described [24]) MSEYIRVTEDENDEPIEIPSEDDGTVLLSTVTAQFPGACGLRYRNPVSQCMRGVRLVEGILHAPDAGWGNLVYVVNY |  | ~2 |
